# Assay results reported in paper PMC12281484, “Targeted O‑GlcNAcylation of CK2α Triggers Its Ubiquitin-Proteasome Degradation and Alters Downstream Phosphorylation” (ACS Chemical Biology, 2025).
# B1: Flag-CRBN (cereblon) (natural protein, UniProt Q96SW2 1-442, looked up)
# chain: MAGEGDQQDAAHNMGNHLPLLPAESEEEDEMEVEDQDSKEAKKPNIINFDTSLPTSHTYLGADMEEFHGRTLHDDDSCQVIPVLPQVMMILIPGQTLPLQLFHPQEVSMVRNLIQKDRTFAVLAYSNVQEREAQFGTTAEIYAYREEQDFGIEIVKVKAIGRQRFKVLELRTQSDGIQQAKVQILPECVLPSTMSAVQLESLNKCQIFPSKPVSREDQCSYKWWQKYQKRKFHCANLTSWPRWLYSLYDAETLMDRIKKQLREWDENLKDDSLPSNPIDFSYRVAACLPIDDVLRIQLLKIGSAIQRLRCELDIMNKCTSLCCKQCQETEITTKNEIFSLSLCGPMAAYVNPHGYVHETLTVYKACNLNLIGRPSTEHSWFPGYAWTVAQCKICASHIGWKFTATKKDMSPQKFWGLTRSALLPTIPDTEDEISPDKVILCL
# notes: cereblon (CRBN), plasmid bought from Addgene; source: co-IP methods: HeLa or HEK293T
# Molecular target: T1, HTN-CK2α^WT with O-GlcNAcylation at Ser347 induced by OGTAC-1 (cells co-expressing fOGT) (UniProt P68400 1-391, O-GlcNAc at Ser347 (level increased by about 2-fold with 100 nM OGTAC-1 at 8 h))
# T1 construct: casein kinase II subunit α (CK2α); Same construct as m1; only a part of the copies is modified (the level is raised over the baseline, not complete); also called HTN-CK2α (OGTAC-1 treated); CK2α with higher O-GlcNAcylation level; source: transfected cells co-expressing fOGT, treated with OGTAC-1 for 8 h, in lysate; not shown: HaloTag, N-terminal, kept
# Assay: co-IP; Flag-CRBN, HTN-CK2α (WT or S347A) and fOGT (WT or K852A) overexpressed in cells; DMSO or 100 nM OGTAC-1 for 8 h; HaloTrap IP; anti-FlagTag and anti-HA-Tag blots
# Conditions: partners not purified
# T1 sequence (P68400 whole entry): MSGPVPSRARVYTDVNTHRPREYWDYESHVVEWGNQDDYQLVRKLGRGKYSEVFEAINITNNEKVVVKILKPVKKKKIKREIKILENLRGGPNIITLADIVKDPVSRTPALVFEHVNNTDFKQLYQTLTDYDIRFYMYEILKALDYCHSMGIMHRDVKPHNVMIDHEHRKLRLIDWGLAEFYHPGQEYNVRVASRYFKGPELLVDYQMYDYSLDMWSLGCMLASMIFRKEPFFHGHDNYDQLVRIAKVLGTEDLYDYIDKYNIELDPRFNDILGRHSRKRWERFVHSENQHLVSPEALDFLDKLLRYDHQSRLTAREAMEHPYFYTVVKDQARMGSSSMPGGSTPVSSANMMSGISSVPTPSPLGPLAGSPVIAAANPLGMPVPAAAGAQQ
binder,measurement,value
B1,fold change of co-IPed CRBN over the DMSO treatment,~2 fold
